According to patent US6989364B1, “Methods for treating cardiac hypertrophy by administering IFN-γ” (Genentech, Inc., priority 1998, dated 2006):

Columns and labels:
[1] = test system: male Sprague/Dawley (SD) rats; test: Cardiac hypertrophy induced by fluprostenol in vivo: body and organ weights; design: species or system rat
Text: This pharmacological model tests the ability of IFN-γ to inhibit cardiac hypertrophy induced in rats (e.g. male Wistar or Sprague-Dawley) by subcutaneous injection of fluprostenol (an agonist analog of PGF2α). It is known that rats with pathologic cardiac hypertrophy induced by myocardial infarction have chronically elevated levels of extractable PGF2α in their myocardium. Lai et al, Am. J. Physiol. (Heart Circ. Physiol.) 271:H2197–H2208 (1996). Accordingly, factors that can inhibit the effects of fluprostenol on myocardial growth in vivo are potentially useful for treating cardiac hypertrophy. The effects of IFN-γ on cardiac hypertrophy are determined by measuring the weight of heart, ventricles, and left ventricle (normalized by body weight) relative to fluprostenol-treated rats not receiving IFN-γ. A detailed description of this assay is provided in the examples.
Animals All experimental procedures conformed to the guiding principles of the American Physiology Society, and were approved by Genentech's Institutional Animal Care and Use Committee. The animals used in this study were male Sprague/Dawley (SD) rats (8 weeks of age, Charles River Breeding Laboratories, Inc.). The animals were acclimated to the facility for at least one week before experiments, fed a pelleted rat chow and water ad libitum, and housed in a light and temperature controlled room.
Administration of fluprostenol and/or IFN-γ Rats received subcutaneous injection of fluprostenol (Cayman Chemical, Ann Arbor, Mich.) at 0.15 mg/kg, recombinant mouse IFN-γ (Genentech, Inc., South San Francisco, Calif.) at 0.08 mg/kg, combination of fluprostenol and IFN-γ, or saline vehicle, twice a day for 14 days. In the IFN-γ and fluprostenol+IFN-γ groups, animals were pretreated with IFN-γ for one day. Body weight was measured before and after treatment. A previous study has shown that the dose of fluprostenol used here is the lowest dose which produces a significant cardiac hypertrophy in rats. Lai et al., supra.
Measurement of organ weights Under anesthesia with ketamine/xylazine, the heart, kidney, and spleen were removed, dissected and weighed. The left ventricle was stored at […] for evaluation of gene expression.
(§1) Statistical analyisis Results are expressed as mean±SEM. One way analysis of variance (ANOVA) was performed to assess differences in parameters between groups. Significant differences were then subjected to post hoc analysis using Newman-Keuls method; P<0.05 was considered significant.

[2] = test system: rats with pressure overload; test: Pressure overload (abdominal aortic banding) cardiac hypertrophy: body and organ weights; type: in vivo, rat
Procedure: For in vivo testing it is common to induce pressure-overload cardiac hypertrophy by constriction of the abdominal aorta of test animals. In a typical protocol rats (e.g. male Wistar or Sprague-Dawley) are treated under anesthesia, and the abdominal aorta of each rat is narrowed down just below the diaphragm. Beznak M., Can. J. Biochem. Physiol. 33, 985–94 (1955). The aorta is exposed through a surgical incision, and a blunted needle is placed next to the vessel. The aorta is constricted with a ligature of wool thread around the needle, which is immediately removed and which reduces the lumen of the aorta to the diameter of the needle. This approach is described, for example, in Rossi et al., Am. Heart J. 124, 700–709 (1992) and O'Rourke and Reibel, P.S.E.M.B. 200, 95–100 (1992). A detailed description of the protocol used by the present inventors is disclosed in the examples hereinbelow.
Animal model of pressure overload The induction of pressure overload by partial ligation of the abdominal aorta in rats was as described previously. Kimura et al., Am. J. Physiol. 1989:256 (Heart Circ. Physiol. 25):H1006–H1-11; Batra et al., J. Cardiovasc. Pharmacol. 17(suppl. 2), S151–S153 (1991). In brief, rats were anesthesized with ketamine/xylazine as described above. A 3 cm midline incision was made in the abdominal wall. The abdominal aorta between the diaphragm and the renal artery was exposed and looped with 5–0 silk suture. The suture was tightened around a gauge 23 needle, and then the needle was withdrawn. Sham animals received the surgery without tightening the suture.
Experimental protocol in rats with pressure overload The rats with aortic banding randomly received subcutaneous injection of IFN-γ at 0.08 mg/k twice a day for one day before surgery and for 14 days after surgery. Sham animals were not treated. Thirteen days after treatment, a catheter was implanted into the right carotid artery under anesthesia as indicated above. One day after implantation, arterial pressure and HR were measured in conscious rats. The heart and other organs including the liver, kidney, and spleen were removed, weighed, and fixed in 10% buffered formalin for pathological studies. The left ventricle was quickly dissected and frozen with liquid nitrogen in some animals and stored at −80° C. for assessment of gene expression.
as §1

[3] = test system: male Sprague/Dawley (SD) rats; test: Hemodynamic assessment (MAP) in rats treated with fluprostenol and/or IFN-γ; type: in vivo, rat; settings: conscious rats, 14 days of treatment (FIG. 5)
Procedure: Hemodynamic assessment Thirteen days after treatment, rats were anesthetized with intraperitoreal injection of ketamine 80 mg/kg (Aveco Co., Inc., Fort Dodge, Iowa) and xylazine 10 mg/kg (Rugby Laboratories, Inc., Rockville Center, N.Y.). A catheter (PE-10 fused with PE 50) filled with heparin-saline solution (50 U/ml) was implanted into the abdominal aorta, via the right femoral artery, for measurement of mean arterial pressure (MAP) and heart rate (HR). The catheter was exteriorized and fixed at the back of the neck.
One day after catheterization, the arterial catheter was connected to a Model CP 10 pressure transducer (Century Technology Company, Inglewood, Calif., USA) that was coupled to a Grass Model 7 polygraph (Grass Instruments, Quincy, Mass., USA). MAP and HR were measured simultaneously in conscious, unrestrained rats.

[4] = IFN-γ 0.08 mg/kg s.c. twice a day, rats
[5] = s.c. twice a day for 14 days, fluprostenol 0.15 mg/kg, IFN-γ 0.08 mg/kg, mean ± SEM
[6] = pressure overload, IFN-γ 0.08 mg/kg s.c. twice a day, 1 day before and 14 days after surgery, mean ± SEM

Substance: IFN-γ: recombinant mouse IFN-γ (Genentech, Inc., South San Francisco, Calif., or Genzyme, Cambridge, Mass.)
- Ratio of heart, ventricular, and left ventricular weights to body weight (FIG. 4) ([1]; 14 days, fluprostenol and IFN-γ alone vs vehicle, fluprostenol+IFN-γ vs fluprostenol group): did not significantly alter
- Effect on body weight, pilot study [1, 4]: little effects on body weight
- Effect on fluprostenol-induced cardiac hypertrophy, pilot study [1, 4]: inhibited fluprostenol-induced cardiac hypertrophy
- BWO, basal levels of body weight ([1]; before treatment, mean ± SEM): 292.5 ± 3.2 g
- BW, body weight post treatment [1, 5]: 380.8 ± 6.1 g
- HW, heart weight [1, 5]: .956 ± .029 g
- KW, kidney weight [1, 5]: 1.327 ± .035 g
- KW/BW, kidney weight to body weight [1, 5]: 3.483 ± .069 g/kg
- LVW, left ventricular weight [1, 5]: .696 ± .023 g
- SW, spleen weight [1, 5]: .924 ± .068 g
- SW/BW, spleen weight to body weight [1, 5]: 2.415 ± .149 g/kg
- VW, ventricular weight [1, 5]: .914 ± .029 g
- ΔBW, BW-BWO [1, 5]: 88.3 ± 5.0 g
- Effect on cardiac hypertrophy induced by pressure overload (heart, atrial, ventricular, left ventricular weights and ratios to BW) ([2]; aortic banding, IFN-γ vs vehicle, Table 2, FIGS. 7 and 8): significantly attenuated cardiac hypertrophy
- BWO, basal levels of body weight ([2]; pressure overload rats, before treatment, mean ± SEM): 279.0 ± 1.3 g
- AW, atrial weight [2, 6]: .046 ± .003 g
- AW/BW, atrial weight to body weight [2, 6]: .129 ± .007 g/kg
- BW, body weight post treatment [2, 6]: 355.5 ± 5.2 g
- KW, kidney weight [2, 6]: 1.349 ± .071 g
- KWBW [2, 6]: 3.776 ± .071 g/kg
- LW, liver weight [2, 6]: 13.96 ± .47 g
- LW/BW, liver weight to body weight [2, 6]: 38.94 ± .92 g/kg
- SW, spleen weight [2, 6]: 1.170 ± .053 g
- SW/BW, spleen weight to body weight [2, 6]: 3.261 ± .121 g/kg
- ΔBW, BW-BWO [2, 6]: 76.5 ± 4.7 g
- Effect of IFN-γ on MAP of animals treated with fluprostenol [3]: did not affect the MAP
- Mean arterial pressure (MAP) compared to vehicle [3]: had no effect on MAP
